Assay results reported in publication PMC4052767.

Biological target: Hat1p/Hat2p/H4_(1-48) complex (yeast (Saccharomyces cerevisiae) | yeast) (UniProt Q12341)
Test: ITC

Chain of Hat1p/Hat2p/H4_(1-48) complex (yeast (Saccharomyces cerevisiae) | yeast) (Q12341 1-320, chain 1 of 3): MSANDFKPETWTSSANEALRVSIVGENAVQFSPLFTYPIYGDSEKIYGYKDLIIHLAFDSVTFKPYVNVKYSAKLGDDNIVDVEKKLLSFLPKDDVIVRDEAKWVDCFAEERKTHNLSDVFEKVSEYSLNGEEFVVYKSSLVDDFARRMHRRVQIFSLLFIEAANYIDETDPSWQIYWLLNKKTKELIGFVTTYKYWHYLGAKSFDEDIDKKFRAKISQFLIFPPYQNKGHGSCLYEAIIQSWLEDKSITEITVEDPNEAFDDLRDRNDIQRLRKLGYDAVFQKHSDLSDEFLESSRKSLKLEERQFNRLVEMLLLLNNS
Chain of Hat1p/Hat2p/H4_(1-48) complex (yeast (Saccharomyces cerevisiae) | yeast) (P39984 whole entry, chain 2 of 3, further chain): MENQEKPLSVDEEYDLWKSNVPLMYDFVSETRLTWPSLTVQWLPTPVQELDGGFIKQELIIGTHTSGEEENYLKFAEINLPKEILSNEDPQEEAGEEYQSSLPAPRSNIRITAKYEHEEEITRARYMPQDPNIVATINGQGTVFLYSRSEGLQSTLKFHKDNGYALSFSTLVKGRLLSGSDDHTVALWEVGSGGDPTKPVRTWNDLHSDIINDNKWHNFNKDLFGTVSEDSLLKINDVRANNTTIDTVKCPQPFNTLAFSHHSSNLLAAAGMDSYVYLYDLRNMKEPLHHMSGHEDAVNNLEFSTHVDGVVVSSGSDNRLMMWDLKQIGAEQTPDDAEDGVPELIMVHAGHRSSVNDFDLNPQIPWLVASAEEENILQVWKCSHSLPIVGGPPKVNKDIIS
Chain of Hat1p/Hat2p/H4_(1-48) complex (yeast (Saccharomyces cerevisiae) | yeast) (P02309 2-49, chain 3 of 3, further chain): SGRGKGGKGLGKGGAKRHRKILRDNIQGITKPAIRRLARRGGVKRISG

Kd | Substance
0.34 µM | H3 peptide (residues 1-15), unmodified (from UniProt P61830 2-16)
2.48 µM | H3K4me1 peptide
4.78 µM | H3K4me2 peptide
11.6 µM | H3K4me3 peptide
